Target: T1, iron-sulfur cluster assembly (ISCU) protein, Q9H1K1
T1 chain: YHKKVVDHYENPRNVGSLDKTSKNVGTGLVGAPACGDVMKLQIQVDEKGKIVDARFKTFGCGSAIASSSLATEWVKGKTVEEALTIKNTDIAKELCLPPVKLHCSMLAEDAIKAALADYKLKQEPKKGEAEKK

B1: glutathione S-transferase P (GSTP1) (protein)
chain: PPYTVVYFPVRGRCAALRMLLADQGQSWKEEVVTVETWQEGSLKASCLYGQLPKFQDGDLTLYQSNTILRHLGRTLGLYGKDQQEAALVDMVNDGVEDLRCKYISLIYTNYEAGKDDYVKALPGQLKPFETLLSQNQGGKTFIVGDQISFADYNLLDLLLIHEVLAPGCLDAFPLLSAYVGRLSARPKLKAFLASPEYVNLPINGNGKQ
  ISCU glutathionylation (α-GSH immunoblot after α-ISCU immunoprecipitation) in PAECs with GSTP1 knockdown: with GSTP1 knockdown, α-ISCU immunoprecipitation revealed a concomitant reduction of GSTP1 pulldown and glutathionylated ISCU in favor of non-glutathionylated ISCU
